From US10215752 (MIT, dated 2019)
Read-outs that look alike come from different tables or passages of the source.

B1: Jun (P05412) without His-tag (other, human, UniProt P05412 1-331, looked up)
chain: MTAKMETTFYDDALNASFLPSESGPYGYSNPKILKQSMTLNLADPVGSLKPHLRAKNSDLLTSPDVGLLKLASPELERLIIQSSNGHITTTPTPTQFLCPKNVTDEQEGFAEGFVRALAELHSQNTLPSVTSAAQPVNGAGMVAPAVASVAGGSGSGGFSASLHSEPPVYANLSNFNPGALSSGGGAPSYGAAGLAFPAQPQQQQQPPHHLPQQMPVQHPRLQALKEEPQTVPEMPGETPPLSPIDMESQERIKAERKRMRNRIAASKCRKRKLERIARLEEKVKTLKAQNSELASTANMLREQVAQLKQKVMNHVNSGCQLMLTQQLQTF
notes: also called Jun (noHis)
B2: His-tag CDK4 (P11802) (enzyme, human)
chain: MATSRYEPVAEIGVGAYGTVYKARDPHSGHFVALKSVRVPNGGGGGGGLPISTVREVALLRRLEAFEHPNVVRLMDVCATSRTDREIKVTLVFEHVDQDLRTYLDKAPPPGLPAETIKDLMRQFLRGLDFLHANCIVHRDLKPENILVTSGGTVKLADFGLARIYSYQMALTPVVVTLWYRAPEVLLQSTYATPVDMWSVGCIFAEMFRRKPLFCGNSEADQLGKIFDLIGLPPEDDWPRDVSLPRGAFPPRGPRPVQSVVPEMEESGAQLLLEMLTFNPHKRISAFRALQHSYLHKDEGNPEHHHHHH
notes: Capture protein, expressed on the chip by cell-free synthesis with a His-tag
B3: His-tag p16 (P42771) (other, human)
chain: MEPAAGSSMEPSADWLATAAARGRVEEVRALLEAGALPNAPNSYGRRPIQVMMMGSARVAELLLLHGAEPNCADPATLTRPVHDAAREGFLDTLVVLHRAGARLDVRDAWGRLPVDLAEELGHRDVARYLRAAAGGTRGSNHARIDAAEGPSDIPDHHHHHH
notes: as for B2
B4: p16 (P42771) without His-tag (other, human, UniProt P42771 1-156, looked up)
chain: MEPAAGSSMEPSADWLATAAARGRVEEVRALLEAGALPNAPNSYGRRPIQVMMMGSARVAELLLLHGAEPNCADPATLTRPVHDAAREGFLDTLVVLHRAGARLDVRDAWGRLPVDLAEELGHRDVARYLRAAAGGTRGSNHARIDAAEGPSDIPD
notes: also called p16 (noHis)
B5: His-tag Jun (P05412) (other, human)
chain: MTAKMETTFYDDALNASFLPSESGPYGYSNPKILKQSMTLNLADPVGSLKPHLRAKNSDLLTSPDVGLLKLASPELERLIIQSSNGHITTTPTPTQFLCPKNVTDEQEGFAEGFVRALAELHSQNTLPSVTSAAQPVNGAGMVAPAVASVAGGSGSGGFSASLHSEPPVYANLSNFNPGALSSGGGAPSYGAAGLAFPAQPQQQQQPPHHLPQQMPVQHPRLQALKEEPQTVPEMPGETPPLSPIDMESQERIKAERKRMRNRIAASKCRKRKLERIARLEEKVKTLKAQNSELASTANMLREQVAQLKQKVMNHVNSGCQLMLTQQLQTFHHHHHH
notes: as for B2
B6: CDK4 (P11802) without His-tag (enzyme, human, UniProt P11802 1-303, looked up)
chain: MATSRYEPVAEIGVGAYGTVYKARDPHSGHFVALKSVRVPNGGGGGGGLPISTVREVALLRRLEAFEHPNVVRLMDVCATSRTDREIKVTLVFEHVDQDLRTYLDKAPPPGLPAETIKDLMRQFLRGLDFLHANCIVHRDLKPENILVTSGGTVKLADFGLARIYSYQMALTPVVVTLWYRAPEVLLQSTYATPVDMWSVGCIFAEMFRRKPLFCGNSEADQLGKIFDLIGLPPEDDWPRDVSLPRGAFPPRGPRPVQSVVPEMEESGAQLLLEMLTFNPHKRISAFRALQHSYLHKDEGNPE
notes: also called CDK4 (noHis)

Legend:
[1] = molecular target: T1, His-tag Fos (P01100) (human, UniProt P01100 1-380); test: change of the Ni2+-SWNT distance on adding the analyte, calculated by the Förster equation from nIR fluorescence of the SWNT/chitosan Ni-NTA array
T1 construct: Capture protein, expressed on the chip by cell-free synthesis with a His-tag

[2] = molecular target: B1; test: label-free nIR fluorescence (1045 nm) of SWNT/chitosan Ni-NTA array spots; His-tag capture protein expressed on the spot, then analyte protein without His-tag added; pair label = capture-analyte
[3] = molecular target: T2, Fos (P01100) without His-tag (human, UniProt P01100 1-380); test: nIR fluorescence spectra (1000-1100 nm) of one SWNT/chitosan Ni-NTA array spot before expression, after the His-tag capture protein and after the analyte protein without His-tag; pair label = capture-analyte
T2 construct: also called Fos (noHis)

[4] = molecular target: T2, Fos (P01100) without His-tag; test: label-free nIR fluorescence (1045 nm) of SWNT/chitosan Ni-NTA array spots; His-tag capture protein expressed on the spot, then analyte protein without His-tag added; pair label = capture-analyte
[5] = molecular target: B1; test: nIR fluorescence spectra (1000-1100 nm) of one SWNT/chitosan Ni-NTA array spot before expression, after the His-tag capture protein and after the analyte protein without His-tag; pair label = capture-analyte
[6] = molecular target: B2; test: change of the Ni2+-SWNT distance on adding the analyte, calculated by the Förster equation from nIR fluorescence of the SWNT/chitosan Ni-NTA array
[7] = molecular target: B5; test: nIR fluorescence spectra (1000-1100 nm) of one SWNT/chitosan Ni-NTA array spot before expression, after the His-tag capture protein and after the analyte protein without His-tag; pair label = capture-analyte
[8] = molecular target: T1, His-tag Fos (P01100); test: as above
[9] = molecular target: T2, Fos (P01100) without His-tag; test: label-free nIR fluorescence (1045 nm) of SWNT/chitosan Ni-NTA array spots; His-tag capture protein expressed on the spot, then cell-free expressed analyte protein without His-tag added; pair label = capture-analyte
[10] = molecular target: B5; test: nIR fluorescence spectra (1000-1100 nm) of one SWNT/chitosan Ni-NTA array spot before expression, after the His-tag capture protein and after the analyte protein without His-tag; pair label = capture-analyte; remark: listed apart in the source
[11] = molecular target: T1, His-tag Fos (P01100); test: as above; remark: listed apart in the source
[12] = molecular target: B3; test: change of the Ni2+-SWNT distance on adding the analyte, calculated by the Förster equation from nIR fluorescence of the SWNT/chitosan Ni-NTA array

T1 sequence (P01100 other isoform, or with tags, fused parts or gaps limits assumed): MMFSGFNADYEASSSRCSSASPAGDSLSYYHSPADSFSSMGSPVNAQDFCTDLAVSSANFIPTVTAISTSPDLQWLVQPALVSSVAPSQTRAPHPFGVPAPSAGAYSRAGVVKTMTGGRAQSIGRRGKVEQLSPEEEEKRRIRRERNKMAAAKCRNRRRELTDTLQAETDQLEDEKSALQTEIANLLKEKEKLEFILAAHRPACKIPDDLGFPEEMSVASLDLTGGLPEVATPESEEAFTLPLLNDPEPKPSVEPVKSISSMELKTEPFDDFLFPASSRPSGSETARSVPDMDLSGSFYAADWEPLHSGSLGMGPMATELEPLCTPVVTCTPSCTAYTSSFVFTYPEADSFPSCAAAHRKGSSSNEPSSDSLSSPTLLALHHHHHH
T2 sequence (P01100 whole entry, one chain of several): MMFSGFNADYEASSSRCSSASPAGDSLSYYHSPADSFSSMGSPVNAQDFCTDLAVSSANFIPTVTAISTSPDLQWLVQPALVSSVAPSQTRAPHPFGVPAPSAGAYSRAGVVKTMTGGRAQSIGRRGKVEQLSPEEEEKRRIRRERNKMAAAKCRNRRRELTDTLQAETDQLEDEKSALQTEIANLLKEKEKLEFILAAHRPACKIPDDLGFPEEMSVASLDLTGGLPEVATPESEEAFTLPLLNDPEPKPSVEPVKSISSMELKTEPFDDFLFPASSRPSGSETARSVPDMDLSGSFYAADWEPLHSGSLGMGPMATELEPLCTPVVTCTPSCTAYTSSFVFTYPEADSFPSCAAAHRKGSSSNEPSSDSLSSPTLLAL

Binder: B1
Δd2 [1]: 0.0236 nm

Binder: B2
binding result [2]: no binding
binding result [3]: no binding

Binder: B3
binding result [4]: no binding
binding result [5]: no binding

Binder: B4
Δd2 [6]: 0.0634 nm
binding result [7]: no binding
binding result [8]: no binding

Binder: B5
binding result [9]: binds

Binder: B6
binding result [10]: no binding
binding result [11]: no binding
Δd2 [12]: 0.0517 nm
